Measured values published in patent US20250136696A1 (HARBOUR BIOMED SHANGHAI, published 2025).

Assays:
Test in all cases: ELISA on coated B7 family protein
[1] = target: T1, Recombinant human VISTA/B7H5/PD-1H Fc chimera (R&D, 7126-B7-050) (human, UniProt Q9H7M9 33-194)
T1 construct: Bought
Protocol: (§1) B7 family proteins (see Table 7 for details) were respectively diluted to […] with PBS, added into a 96-well plate (Corning, #9018) at 100 μl/well, and incubated at 4° C. overnight. After the liquid was discarded, the plate was washed 3 times with a PBST buffer (pH 7.4, containing 0.05% tween-20), 250 μl of blocking solution containing 2% BSA was added, and the plate was incubated for 1 hour at 37° C. The blocking solution was discarded, the plate was washed 3 times with PBST buffer (pH 7.4, containing 0.05% Tween-20), the antigen-binding protein to be tested was diluted to 2 concentrations of 10 nM and 1 nM, 100 μl of the diluted antigen-binding protein was added to each well, and the plate was incubated for 1 hour at 37° C., with the isotype antibody as the control. After the plate was washed 3 times with PBST buffer (pH 7.4, containing 0.05% Tween-20), goat anti-human HRP secondary antibody (Invitrogen, #A18805) diluted 5000 times was added, and the plate was incubated at 37° C. for 1 hour in the dark. After the plate was washed 3 times with PBST buffer (pH 7.4, containing 0.05% tween-20), TMB (Biopanda, #TMB-S-003) was added at 100 μl/well, and the plate was placed at room temperature for about 30 minutes in the dark; and a stop solution (BBI life sciences, #E661006-0200) was added to each well at 50 μl/well to stop the reaction, and the absorbance at 450 nm (OD450) was determined in a microplate reader (PerkinElemer, #Enspire).

[2] = target: T2, B7-H3/CD276 protein, human, recombinant (ECD, Fc tag) (Sino Biological, 11188-H02H) (human, UniProt Q5ZPR3 29-466)
T2 construct: extracellular domain; Bought
T2 sequence (looked up): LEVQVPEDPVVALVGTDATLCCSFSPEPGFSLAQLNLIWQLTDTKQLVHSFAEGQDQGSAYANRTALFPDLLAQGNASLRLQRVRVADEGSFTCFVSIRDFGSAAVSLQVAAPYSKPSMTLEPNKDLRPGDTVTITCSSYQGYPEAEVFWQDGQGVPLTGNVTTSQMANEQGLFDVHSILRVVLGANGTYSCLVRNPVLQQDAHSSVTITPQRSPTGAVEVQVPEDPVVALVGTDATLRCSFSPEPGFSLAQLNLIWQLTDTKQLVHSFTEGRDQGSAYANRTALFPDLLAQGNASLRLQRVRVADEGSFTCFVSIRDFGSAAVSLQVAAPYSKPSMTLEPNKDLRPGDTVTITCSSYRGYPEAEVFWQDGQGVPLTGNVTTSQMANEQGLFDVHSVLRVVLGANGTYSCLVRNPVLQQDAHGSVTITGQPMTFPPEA
Protocol: as §1

[3] = target: T3, Human B7-DC/PD-L2/CD273 protein, recombinant (Fc tag) (Sino Biological, H10292-H02H) (human, UniProt Q9BQ51 20-219)
T3 construct: Bought
T3 sequence (looked up): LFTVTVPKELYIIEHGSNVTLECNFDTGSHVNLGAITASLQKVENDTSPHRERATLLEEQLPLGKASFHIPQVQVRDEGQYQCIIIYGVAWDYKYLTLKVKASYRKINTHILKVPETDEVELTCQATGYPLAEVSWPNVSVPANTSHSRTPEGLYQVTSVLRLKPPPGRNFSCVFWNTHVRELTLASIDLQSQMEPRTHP
Protocol: as §1

[4] = target: T4, CD275/ICOS ligand protein, human, recombinant (Fc tag) (Sino Biological, 11559-H02H) (human, UniProt O75144 19-258)
T4 construct: Bought; also called B7H2
T4 sequence (looked up): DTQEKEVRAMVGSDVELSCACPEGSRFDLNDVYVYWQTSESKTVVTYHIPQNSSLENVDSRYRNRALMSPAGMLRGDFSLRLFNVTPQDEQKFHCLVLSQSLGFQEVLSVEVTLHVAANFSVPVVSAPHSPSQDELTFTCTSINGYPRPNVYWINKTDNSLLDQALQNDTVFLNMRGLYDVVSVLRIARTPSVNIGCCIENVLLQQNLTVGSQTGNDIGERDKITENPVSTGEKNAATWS
Protocol: as §1

[5] = target: T5, B7-H6 /NCR3LG1 protein, human, recombinant (Fc tag) (Sino Biological, 16140-H02H) (human, UniProt Q68D85 25-262)
T5 construct: Bought
T5 sequence (looked up): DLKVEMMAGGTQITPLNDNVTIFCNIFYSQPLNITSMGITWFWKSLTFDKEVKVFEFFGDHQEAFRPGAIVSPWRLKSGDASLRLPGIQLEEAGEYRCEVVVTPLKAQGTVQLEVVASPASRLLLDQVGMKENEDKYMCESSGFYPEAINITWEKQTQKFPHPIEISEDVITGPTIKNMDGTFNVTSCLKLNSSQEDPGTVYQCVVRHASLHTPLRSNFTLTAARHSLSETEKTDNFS
Protocol: as §1

[6] = target: T6, Human PD-L1/B7-H1 protein, His tag (Acro, PD1-H5229) (human, UniProt Q9NZQ7 19-238)
T6 construct: Bought
T6 sequence (Q9NZQ7 19-238 limits assumed): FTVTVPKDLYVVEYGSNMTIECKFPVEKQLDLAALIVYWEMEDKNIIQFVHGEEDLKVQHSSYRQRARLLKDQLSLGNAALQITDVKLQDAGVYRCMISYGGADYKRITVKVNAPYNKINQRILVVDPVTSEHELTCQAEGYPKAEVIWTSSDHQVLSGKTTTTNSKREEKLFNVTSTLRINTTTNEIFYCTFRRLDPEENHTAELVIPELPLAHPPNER
Protocol: as §1

[7] = target: T7, Human B7-1/CD80 protein, Fc tag (Acro, B71-H5259) (human, UniProt P33681 35-242)
T7 construct: Bought
T7 sequence (looked up): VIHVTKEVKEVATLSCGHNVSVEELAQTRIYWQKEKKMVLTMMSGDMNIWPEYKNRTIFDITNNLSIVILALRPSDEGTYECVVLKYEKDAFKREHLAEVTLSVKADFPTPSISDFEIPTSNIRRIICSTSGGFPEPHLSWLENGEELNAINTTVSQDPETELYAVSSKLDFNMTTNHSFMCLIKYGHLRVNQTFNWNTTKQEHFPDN
Protocol: as §1

[8] = target: T8, Human B7-2/CD86 protein, Fc tag (Acro, CD6-H5257) (human, UniProt P42081 26-247)
T8 construct: Bought
T8 sequence (looked up): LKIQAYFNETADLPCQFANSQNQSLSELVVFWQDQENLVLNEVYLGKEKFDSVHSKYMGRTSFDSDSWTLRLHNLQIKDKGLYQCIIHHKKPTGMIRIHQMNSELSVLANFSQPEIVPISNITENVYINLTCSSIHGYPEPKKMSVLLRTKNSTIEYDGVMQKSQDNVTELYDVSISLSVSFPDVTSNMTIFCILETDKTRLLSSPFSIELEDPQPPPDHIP
Protocol: as §1

Measured: binding result

B1: PR004260 (antibody, human IgG1, kappa, L234A L235A)
heavy: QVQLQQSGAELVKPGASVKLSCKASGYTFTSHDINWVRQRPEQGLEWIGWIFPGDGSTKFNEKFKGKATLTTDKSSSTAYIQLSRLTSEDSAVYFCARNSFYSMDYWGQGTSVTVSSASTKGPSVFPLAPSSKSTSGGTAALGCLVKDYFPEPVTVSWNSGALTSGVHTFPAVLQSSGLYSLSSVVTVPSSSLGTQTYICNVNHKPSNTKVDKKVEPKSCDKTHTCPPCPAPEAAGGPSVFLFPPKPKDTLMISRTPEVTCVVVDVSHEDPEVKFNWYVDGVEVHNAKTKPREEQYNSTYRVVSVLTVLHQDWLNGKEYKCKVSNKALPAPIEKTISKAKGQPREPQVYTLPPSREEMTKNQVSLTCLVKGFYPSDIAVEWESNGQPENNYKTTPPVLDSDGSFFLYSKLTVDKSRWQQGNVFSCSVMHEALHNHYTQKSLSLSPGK
light: DIVMSQSPSSLAVSAGEKVTMSCKSSQSLLNSRTRKNQLAWYQQKPGQSPKLLIYWASTRESGVPDRFTGSGSGTDFTLTISSVQAEDLAVYYCKQSYNLRTFGGGTKLEIKRTVAAPSVFIFPPSDEQLKSGTASVVCLLNNFYPREAKVQWKVDNALQSGNSQESVTEQDSKDSTYSLSSTLTLSKADYEKHKVYACEVTHQGLSSPVTKSFNRGEC
notes: Variant of PR003181; Human IgG1 with LALA mutation in Fc
no binding (tested: 10 nM): all assays above

B2: PR004263 (antibody, human IgG1, kappa, L234A L235A)
heavy: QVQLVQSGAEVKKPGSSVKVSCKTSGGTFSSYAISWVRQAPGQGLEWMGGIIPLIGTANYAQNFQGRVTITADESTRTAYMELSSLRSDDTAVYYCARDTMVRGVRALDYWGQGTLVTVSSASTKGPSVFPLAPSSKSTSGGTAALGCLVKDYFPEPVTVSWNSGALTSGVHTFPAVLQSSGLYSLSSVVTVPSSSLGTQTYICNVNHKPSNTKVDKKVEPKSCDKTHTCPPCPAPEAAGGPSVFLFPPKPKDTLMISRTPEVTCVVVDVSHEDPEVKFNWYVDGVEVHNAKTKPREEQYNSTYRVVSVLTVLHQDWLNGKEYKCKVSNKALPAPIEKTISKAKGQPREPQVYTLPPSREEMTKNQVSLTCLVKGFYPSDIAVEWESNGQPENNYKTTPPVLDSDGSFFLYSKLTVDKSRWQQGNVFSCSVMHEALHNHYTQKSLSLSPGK
light: DIQLTQSPSFLSASVGDRVTITCRASQGISSYFAWYQQKPGKAPKLLIYAASTLQSGVPSRFSGSGSGTEFTLTISSLQPEDFATYYCQHLNRYPWTFGQGTKVEIKRTVAAPSVFIFPPSDEQLKSGTASVVCLLNNFYPREAKVQWKVDNALQSGNSQESVTEQDSKDSTYSLSSTLTLSKADYEKHKVYACEVTHQGLSSPVTKSFNRGEC
notes: Variant of PR003264; Human IgG1 with LALA mutation in Fc
no binding (tested: 10 nM): all assays above
